# How the values were obtained:
# Assay in all cases: IEDB peptide-MHC binding, purified MHC/competitive/radioactivity; filed as Kd, often an IC50 or EC50 that approximates it; ≥ and ≤ were set here for values at or beyond the usual limits of such assays
# HLA-A*02:06 = target: HLA-A*02:06
# HLA-A*02:03 = target: HLA-A*02:03
# HLA-A*33:01 = target: HLA-A*33:01
# HLA-A*03:01 = target: HLA-A*03:01
# HLA-A*11:01 = target: HLA-A*11:01
# HLA-A*68:01 = target: HLA-A*68:01
# HLA-A*31:01 = target: HLA-A*31:01
# [1] = source organism: Dengue virus 4 Philippines/H241/1956
# [2] = source organism: Vaccinia virus WR
# [3] = source organism: SARS coronavirus Tor2
# [4] = source organism: Vaccinia virus Copenhagen
# [5] = source organism: Dengue virus 3 Martinique/1243/1999
# [6] = source organism: Dengue virus 1 Nauru/West Pac/1974
# [7] = source organism: Dengue virus 1 Brazil/97-11/1997
# [8] = source organism: Lymphocytic choriomeningitis virus (strain Armstrong)
# [9] = source organism: Mammarenavirus juninense
# [10] = source organism: Mammarenavirus guanaritoense
# [11] = source organism: Dengue virus 2 16681-PDK53
# [12] = source organism: Mammarenavirus machupoense
# [13] = source organism: Triticum aestivum
sequence,measurement,setting,value
SLVMLLVHYA,Kd,HLA-A*02:06; [1],423 nM
same,Kd,HLA-A*02:03; [1],640 nM
ITLDTMDDMK,Kd,HLA-A*33:01; [2],≥ 70000 nM
same,Kd,HLA-A*03:01; [2],3190 nM
same,Kd,HLA-A*11:01; [2],42.3 nM
same,Kd,HLA-A*68:01; [2],122 nM
same,Kd,HLA-A*31:01; [2],16700 nM
ELGKKKTPR,Kd,HLA-A*33:01; source organism: Dengue virus 2 Jamaica/1409/1983,116 nM
TLVPQEHYVR,Kd,HLA-A*33:01; [3],1910 nM
same,Kd,HLA-A*03:01; [3],130 nM
same,Kd,HLA-A*11:01; [3],436 nM
same,Kd,HLA-A*68:01; [3],445 nM
same,Kd,HLA-A*31:01; [3],989 nM
HMVRCCKVY,Kd,HLA-A*33:01; [2],≥ 45800 nM
same,Kd,HLA-A*03:01; [2],399 nM
same,Kd,HLA-A*11:01; [2],≥ 40000 nM
same,Kd,HLA-A*68:01; [2],780 nM
same,Kd,HLA-A*31:01; [2],10700 nM
STSPTRTWK,Kd,HLA-A*33:01; [4],6520 nM
same,Kd,HLA-A*03:01; [4],6.72 nM
same,Kd,HLA-A*11:01; [4],0.803 nM
same,Kd,HLA-A*68:01; [4],5.87 nM
same,Kd,HLA-A*31:01; [4],36.2 nM
IMKDGRKLV,Kd,HLA-A*02:03; [5],558 nM
LLKTALLIV,Kd,HLA-A*02:03; [5],10.6 nM
ALKYLPIDK,Kd,HLA-A*33:01; [3],≥ 48500 nM
same,Kd,HLA-A*03:01; [3],299 nM
same,Kd,HLA-A*11:01; [3],878 nM
same,Kd,HLA-A*68:01; [3],2370 nM
same,Kd,HLA-A*31:01; [3],6570 nM
LTMFLITENK,Kd,HLA-A*03:01; [6],4.57 nM
same,Kd,HLA-A*11:01; [6],30.4 nM
same,Kd,HLA-A*68:01; [6],23 nM
SMFWDGMDY,Kd,HLA-A*33:01; [2],10400 nM
same,Kd,HLA-A*03:01; [2],1.02 nM
same,Kd,HLA-A*11:01; [2],0.823 nM
same,Kd,HLA-A*68:01; [2],11.9 nM
same,Kd,HLA-A*31:01; [2],124 nM
KQLGQIMLL,Kd,HLA-A*02:06; [7],5.76 nM
GICSCGAFK,Kd,HLA-A*11:01; [8],54.6 nM
LALSLTFIR,Kd,HLA-A*33:01; [1],6.39 nM
same,Kd,HLA-A*31:01; [1],97.1 nM
HTSVSAKQLR,Kd,HLA-A*33:01; [2],1140 nM
same,Kd,HLA-A*03:01; [2],2510 nM
same,Kd,HLA-A*11:01; [2],274 nM
same,Kd,HLA-A*68:01; [2],16.3 nM
same,Kd,HLA-A*31:01; [2],162 nM
LLNRFTMAHR,Kd,HLA-A*31:01; [7],≥ 48500 nM
IMQRGLFGK,Kd,HLA-A*03:01; [1],85.6 nM
same,Kd,HLA-A*11:01; [1],327 nM
ISSRVDRYSK,Kd,HLA-A*33:01; [2],≥ 70000 nM
same,Kd,HLA-A*03:01; [2],≥ 27300 nM
same,Kd,HLA-A*11:01; [2],287 nM
same,Kd,HLA-A*68:01; [2],861 nM
same,Kd,HLA-A*31:01; [2],7200 nM
TTIITPMMR,Kd,HLA-A*33:01; [6],52.9 nM
same,Kd,HLA-A*11:01; [6],215 nM
same,Kd,HLA-A*68:01; [6],4.15 nM
LMAYANQIHH,Kd,HLA-A*33:01; [9],≥ 53900 nM
same,Kd,HLA-A*03:01; [9],523 nM
same,Kd,HLA-A*11:01; [9],9790 nM
same,Kd,HLA-A*68:01; [9],≥ 24200 nM
same,Kd,HLA-A*31:01; [9],≥ 24500 nM
FIDVHIPKFK,Kd,HLA-A*33:01; [2],13100 nM
same,Kd,HLA-A*03:01; [2],1060 nM
same,Kd,HLA-A*11:01; [2],179 nM
same,Kd,HLA-A*68:01; [2],108 nM
same,Kd,HLA-A*31:01; [2],2700 nM
RMLDTSEKY,Kd,HLA-A*33:01; [2],≥ 68100 nM
same,Kd,HLA-A*03:01; [2],4980 nM
same,Kd,HLA-A*11:01; [2],9870 nM
same,Kd,HLA-A*68:01; [2],≥ 77700 nM
same,Kd,HLA-A*31:01; [2],≥ 66200 nM
KNGAIKVLR,Kd,HLA-A*31:01; [7],≥ 51000 nM
LVFNSISAR,Kd,HLA-A*33:01; [2],1040 nM
same,Kd,HLA-A*03:01; [2],4.22 nM
same,Kd,HLA-A*11:01; [2],27 nM
same,Kd,HLA-A*68:01; [2],143 nM
same,Kd,HLA-A*31:01; [2],2.5 nM
RSCSFKVGHH,Kd,HLA-A*33:01; [10],≥ 70000 nM
same,Kd,HLA-A*03:01; [10],11400 nM
same,Kd,HLA-A*68:01; [10],≥ 36600 nM
same,Kd,HLA-A*31:01; [10],477 nM
VTNPAVLRK,Kd,HLA-A*03:01; [7],4.28 nM
same,Kd,HLA-A*11:01; [7],16.5 nM
LQMENKAWL,Kd,HLA-A*02:06; [11],22.8 nM
DTQMRTPLHK,Kd,HLA-A*33:01; [2],12500 nM
same,Kd,HLA-A*03:01; [2],4160 nM
same,Kd,HLA-A*11:01; [2],78 nM
same,Kd,HLA-A*68:01; [2],1480 nM
same,Kd,HLA-A*31:01; [2],≥ 52100 nM
IVQMLSDTLK,Kd,HLA-A*33:01; [3],≥ 22500 nM
same,Kd,HLA-A*03:01; [3],292 nM
same,Kd,HLA-A*11:01; [3],64.4 nM
same,Kd,HLA-A*68:01; [3],1180 nM
same,Kd,HLA-A*31:01; [3],3820 nM
VQIDRLITGR,Kd,HLA-A*33:01; [3],912 nM
same,Kd,HLA-A*03:01; [3],1990 nM
same,Kd,HLA-A*11:01; [3],3020 nM
same,Kd,HLA-A*68:01; [3],1030 nM
same,Kd,HLA-A*31:01; [3],43.6 nM
ILFMEMFFDY,Kd,HLA-A*33:01; [2],≥ 64300 nM
same,Kd,HLA-A*03:01; [2],31.6 nM
same,Kd,HLA-A*11:01; [2],121 nM
same,Kd,HLA-A*68:01; [2],845 nM
same,Kd,HLA-A*31:01; [2],5470 nM
STSAFIDTIK,Kd,HLA-A*33:01; [3],≥ 47100 nM
same,Kd,HLA-A*03:01; [3],1090 nM
same,Kd,HLA-A*11:01; [3],15.6 nM
same,Kd,HLA-A*68:01; [3],25.9 nM
same,Kd,HLA-A*31:01; [3],8800 nM
LMAFANQIHH,Kd,HLA-A*33:01; [12],≥ 70000 nM
same,Kd,HLA-A*03:01; [12],931 nM
same,Kd,HLA-A*11:01; [12],15300 nM
same,Kd,HLA-A*68:01; [12],≥ 47300 nM
same,Kd,HLA-A*31:01; [12],≥ 22300 nM
ALDEKWNEFK,Kd,HLA-A*33:01; [2],≥ 70000 nM
same,Kd,HLA-A*03:01; [2],192 nM
same,Kd,HLA-A*11:01; [2],98.2 nM
same,Kd,HLA-A*68:01; [2],9850 nM
same,Kd,HLA-A*31:01; [2],7280 nM
ATTIITPMMR,Kd,HLA-A*11:01; [6],162 nM
same,Kd,HLA-A*68:01; [6],386 nM
same,Kd,HLA-A*31:01; [6],≥ 70000 nM
LSIVVDINK,Kd,HLA-A*33:01; [2],≥ 77700 nM
same,Kd,HLA-A*03:01; [2],5120 nM
same,Kd,HLA-A*11:01; [2],23.8 nM
same,Kd,HLA-A*68:01; [2],15.1 nM
same,Kd,HLA-A*31:01; [2],4130 nM
FTTNIWLKLK,Kd,HLA-A*68:01; [11],12.5 nM
TMWHVTRGSV,Kd,HLA-A*02:03; [1],24.3 nM
TLMSIVSSLH,Kd,HLA-A*33:01; [8],≥ 70000 nM
NSISARALK,Kd,HLA-A*33:01; [2],6.53 nM
same,Kd,HLA-A*03:01; [2],78.7 nM
same,Kd,HLA-A*11:01; [2],3.99 nM
same,Kd,HLA-A*68:01; [2],4.9 nM
same,Kd,HLA-A*31:01; [2],11.1 nM
YVASYLLAAL,Kd,HLA-A*02:03; source organism: Homo sapiens,1.04 nM
RSLQTIASKK,Kd,HLA-A*33:01; [2],≥ 70000 nM
same,Kd,HLA-A*03:01; [2],50.3 nM
same,Kd,HLA-A*11:01; [2],22.5 nM
same,Kd,HLA-A*68:01; [2],1170 nM
same,Kd,HLA-A*31:01; [2],183 nM
QQQQQQQQK,Kd,HLA-A*33:01; [13],≥ 56400 nM
same,Kd,HLA-A*03:01; [13],2110 nM
same,Kd,HLA-A*11:01; [13],845 nM
same,Kd,HLA-A*68:01; [13],≥ 31300 nM
same,Kd,HLA-A*31:01; [13],5380 nM

# — the Immune Epitope Database (IEDB)
